Laboratory results reported in patent US20240026037A1 (Memorial Sloan Kettering, published 2024).

Legend:
[1] = biological target: T1, Human GPA33 on GPA33+ colorectal cancer cell lines (Colo 205, LS 174T, SW 1222) (human, UniProt Q99795 22-319); test: FACS binding to SW1222 cells (GPA33+); the text prints 1.78 nM for this pair
T1 construct: Endogenous GPA33 on human colorectal cancer cell lines; also called surface human GPA33; GPA33+ tumor cell lines
T1 sequence: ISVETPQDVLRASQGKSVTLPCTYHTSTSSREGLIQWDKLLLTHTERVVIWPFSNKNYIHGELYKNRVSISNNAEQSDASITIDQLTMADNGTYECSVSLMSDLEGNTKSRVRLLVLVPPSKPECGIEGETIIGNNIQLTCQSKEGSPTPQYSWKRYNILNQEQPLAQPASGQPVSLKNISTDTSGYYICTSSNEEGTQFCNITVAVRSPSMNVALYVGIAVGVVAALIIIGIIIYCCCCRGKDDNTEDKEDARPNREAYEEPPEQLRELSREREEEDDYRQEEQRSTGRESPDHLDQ

[2] = biological target: T2, Human GPA33 (recombinant protein, Novoprotein) (human, UniProt Q99795 22-235); test: SPR (Biacore), human GPA33 immobilized on CM5 chip, two-state fit, kd1
T2 construct: Bought recombinant protein immobilized on a CM5 chip; also called GPA33 antigen; tumor antigen GPA33
T2 sequence: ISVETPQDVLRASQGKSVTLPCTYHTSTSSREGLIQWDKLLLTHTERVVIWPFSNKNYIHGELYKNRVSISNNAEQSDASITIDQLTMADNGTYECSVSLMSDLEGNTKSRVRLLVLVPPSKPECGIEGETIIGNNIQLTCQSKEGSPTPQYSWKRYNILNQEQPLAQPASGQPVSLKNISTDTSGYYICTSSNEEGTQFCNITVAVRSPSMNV
How it was run: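 The off-rate (kd1) came from surface plasmon resonance, with sensorgrams fitted to a two-state binding model to derive the kinetic parameters. Recombinant human GPA33 from Novoprotein was immobilised on a CM5 chip in a Biacore T100. Antibodies were flowed over at five concentrations, made as 2-fold serial dilutions starting at 20 nM. The parent IgG1 was run at 25° C, and the bispecific formats at both 25° C and 37° C.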

[3] = biological target: T2, Human GPA33 (recombinant protein, …); test: SPR (Biacore), human GPA33 immobilized on CM5 chip, two-state fit, ka1
How it was run: (§1)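 GPA33 immobilized on CM5 chip; five 2-fold dilutions of huA33 IgG1 or huA33 bispecifics from 20 nM injected. Kinetics measured at 25 °C for huA33, at both 25 °C and 37 °C for bispecifics; sensorgrams fitted to a two-state binding model.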

[4] = biological target: T1, Human GPA33 on GPA33+ colorectal cancer …; test: FACS binding to LS174T cells (GPA33+)
[5] = biological target: T1, Human GPA33 on GPA33+ colorectal cancer …; test: FACS binding to Colo205 cells (GPA33+)
[6] = biological target: T1, Human GPA33 on GPA33+ colorectal cancer …; test: flow cytometry, Colo 205 cells; Colo 205 cells
[7] = biological target: T2, Human GPA33 (recombinant protein, …); test: SPR (Biacore), human GPA33 immobilized on CM5 chip, two-state fit
How it was run: as §1

[8] = biological target: T1, Human GPA33 on GPA33+ colorectal cancer …; test: FACS titration on SW1222 cells, geometric mean MFI (the text prints 1.78 nM and calls it IC50) [Cont.]
[9] = biological target: T1, Human GPA33 on GPA33+ colorectal cancer …; test: FACS binding to SW1222 cells (GPA33+)
[10] = biological target: T1, Human GPA33 on GPA33+ colorectal cancer …; test: flow cytometry, LS 174T cells
[11] = biological target: T1, Human GPA33 on GPA33+ colorectal cancer …; test: FACS titration on SW1222 cells, geometric mean MFI (same value as in FIG. 4A; the text prints 1.78 nM) [contd.]
[12] = biological target: T2, Human GPA33 (recombinant protein, …); test: SPR (Biacore), human GPA33 immobilised on the chip; KD relative to that of TC170
How it was run: (§2)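 On a Biacore system, antibodies at five concentrations (2-fold serial dilutions, highest 20 nM) were passed over recombinant human GPA33 (Novoprotein) immobilised on a CM5 sensor chip. Rate constants and the dissociation constant (KD) came from kinetic fitting of the surface plasmon resonance sensorgrams. Each KD is expressed relative to the KD of a reference molecule, as a ratio.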

[13] = biological target: T1, Human GPA33 on GPA33+ colorectal cancer …; test: flow cytometry, SW 1222 cells
[14] = biological target: T2, Human GPA33 (recombinant protein, …); test: SPR (Biacore), human GPA33 immobilised on the chip; reference row
How it was run: as §2

[15] = biological target: T1, Human GPA33 on GPA33+ colorectal cancer …; test: FACS titration on Colo205 cells, geometric mean MFI (same value as in FIG. 4A; the text prints 0.74 nM)
[16] = biological target: T1, Human GPA33 on GPA33+ colorectal cancer …; test: FACS titration on Colo205 cells, geometric mean MFI (the text prints 0.74 nM and calls it IC50)
[17] = biological target: T1, Human GPA33 on GPA33+ colorectal cancer …; test: FACS binding to SW1222 cells (GPA33+); reference row
[18] = biological target: T1, Human GPA33 on GPA33+ colorectal cancer …; test: FACS binding to LS174T cells (GPA33+); reference row
[19] = biological target: T1, Human GPA33 on GPA33+ colorectal cancer …; test: FACS binding to Colo205 cells (GPA33+); reference row

B1: TC171 (bispecific antibody)
chain: DIQMTQSPSSLSASVGDRVTITCKASQNVRTVVAWYQQKPGKAPKTLIYLASNRHTGVPSRFSGSGSGTEFTLTISNLQPEDFATYYCLQHWSYPLTFGSGTKLEVKRGGGGSGGGGSGGGGSGGGGSGGGGSGGGGSEVQLVESGGGLVKPGGSLRLSCAASGFAFSTYDMSWVRQAPGKGLEWVSTISSGGSYTYYADSVKGRFTISRDNAKNSLYLQMNSLRAEDTAVYYCAPTTVVPFAYWGQGTLVTVSAGGGGSGGGGSGGGGSGGGGSHVQLVESGGGLVQPGGSLRLSCAASGFSLTDYGVHWVRQAPGKGLEWLGVIWSGGGTAYNTALISRFTISRDNSKNTLYLQMNSLRAEDTAVYYCARRGSYPYNYFDAWGCGTLVTVSSGGGGSGGGGSGGGGSGGGGSGGGGSGGGGSQAVVTQEPSLTVSPGGTVTLTCGSSTGAVTASNYANWVQQKPGQCPRGLIGGHNNRPPGVPARFSGSLLGGKAALTLLGAQPEDEAEYYCALWYSDHWVIGGGTKLTVLGTPLGDTTHTSGKPLDGEYFTLQIRGRERFEMFRELNEALELKDAQAGKEPGGSGGAPHHHHHH
notes: As TC170, with the other VH/VL orientation of the anti-GPA33 scFv; Carries the p53 SADA (tetramerization) domain; also called GPA33xDOTA SADA
- EC50 [1]: 1770 pM
- koff [2]: 0.000886 s⁻¹
- kon [3]: 3.34e+06 M⁻¹ s⁻¹
- fold change of binding EC50 (relative to TC170, lower is better) [4]: 1.81
- fold change of binding EC50 (relative to TC170, lower is better) [5]: 1.41
- EC50 [6]: 1040 pM
- Kd [7]: 23 pM
- ka2 [7]: 0.00663 s⁻¹
- kd2 [7]: 0.000628 s⁻¹
- EC50 [8]: 770 pM
- fold change of binding EC50 (relative to TC170, lower is better) [9]: 1.07
- IC50 [10]: 560 pM
- EC50 [11]: 770 pM
- Fold change of KD (relative to TC170, lower is better) [12]: 1.5
- IC50 [13]: 1780 pM

B2: TC170 (bispecific antibody)
chain: EVQLVESGGGLVKPGGSLRLSCAASGFAFSTYDMSWVRQAPGKGLEWVSTISSGGSYTYYADSVKGRFTISRDNAKNSLYLQMNSLRAEDTAVYYCAPTTVVPFAYWGQGTLVTVSAGGGGSGGGGSGGGGSGGGGSGGGGSGGGGSDIQMTQSPSSLSASVGDRVTITCKASQNVRTVVAWYQQKPGKAPKTLIYLASNRHTGVPSRFSGSGSGTEFTLTISNLQPEDFATYYCLQHWSYPLTFGSGTKLEVKRGGGGSGGGGSGGGGSGGGGSHVQLVESGGGLVQPGGSLRLSCAASGFSLTDYGVHWVRQAPGKGLEWLGVIWSGGGTAYNTALISRFTISRDNSKNTLYLQMNSLRAEDTAVYYCARRGSYPYNYFDAWGCGTLVTVSSGGGGSGGGGSGGGGSGGGGSGGGGSGGGGSQAVVTQEPSLTVSPGGTVTLTCGSSTGAVTASNYANWVQQKPGQCPRGLIGGHNNRPPGVPARFSGSLLGGKAALTLLGAQPEDEAEYYCALWYSDHWVIGGGTKLTVLGTPLGDTTHTSGKPLDGEYFTLQIRGRERFEMFRELNEALELKDAQAGKEPGGSGGAPHHHHHH
notes: Single chain: anti-GPA33 scFv, anti-DOTA (C825) scFv, p53 SADA domain; The copy number 4 comes from the p53 tetramerization domain; the self-assembling and disassembling state depends on concentration; also called GPA33 SADA (TC170); GPA33xDOTA SADA
- koff [2]: 0.000728 s⁻¹
- kon [3]: 3.54e+06 M⁻¹ s⁻¹
- Fold change of KD (relative to TC170, lower is better) [14]: 1
- EC50 [15]: 730 pM
- EC50 [6]: 740 pM
- EC50 [16]: 730 pM
- Kd [7]: 15.8 pM
- ka2 [7]: 0.00646 s⁻¹
- kd2 [7]: 0.000538 s⁻¹
- IC50 [10]: 310 pM
- fold change of binding EC50 (relative to TC170, lower is better) [17]: 1
- fold change of binding EC50 (relative to TC170, lower is better) [18]: 1
- IC50 [13]: 1650 pM
- fold change of binding EC50 (relative to TC170, lower is better) [19]: 1
